In patent US20150064134A1:

Legend:
Experiment in all cases: cell-based or functional assay
PKG1α(h) (human) = PKG1α(h) (human) (UniProt Q13976)
MST2(h) (human) = molecular target: T1, MST2(h) (human) (UniProt Q13188)
T1 sequence (looked up): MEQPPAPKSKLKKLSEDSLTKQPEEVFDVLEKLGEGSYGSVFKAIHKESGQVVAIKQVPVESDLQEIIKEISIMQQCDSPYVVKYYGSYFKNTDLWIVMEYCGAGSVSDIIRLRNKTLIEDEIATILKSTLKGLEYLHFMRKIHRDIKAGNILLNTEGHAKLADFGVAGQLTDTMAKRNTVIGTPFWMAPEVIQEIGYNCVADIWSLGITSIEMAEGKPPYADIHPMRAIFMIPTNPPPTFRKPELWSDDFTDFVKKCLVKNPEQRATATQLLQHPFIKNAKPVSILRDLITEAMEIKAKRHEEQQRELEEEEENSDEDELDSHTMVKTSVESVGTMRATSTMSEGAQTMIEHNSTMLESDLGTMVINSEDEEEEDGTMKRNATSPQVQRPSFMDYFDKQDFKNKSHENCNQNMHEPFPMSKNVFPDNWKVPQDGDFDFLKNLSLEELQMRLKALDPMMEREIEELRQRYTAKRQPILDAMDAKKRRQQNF

ASK1(h) (human) = ASK1(h) (human) (UniProt Q99683)
Rse(h) (human) = molecular target: T2, Rse(h) (human) (UniProt Q06418)
T2 sequence (looked up): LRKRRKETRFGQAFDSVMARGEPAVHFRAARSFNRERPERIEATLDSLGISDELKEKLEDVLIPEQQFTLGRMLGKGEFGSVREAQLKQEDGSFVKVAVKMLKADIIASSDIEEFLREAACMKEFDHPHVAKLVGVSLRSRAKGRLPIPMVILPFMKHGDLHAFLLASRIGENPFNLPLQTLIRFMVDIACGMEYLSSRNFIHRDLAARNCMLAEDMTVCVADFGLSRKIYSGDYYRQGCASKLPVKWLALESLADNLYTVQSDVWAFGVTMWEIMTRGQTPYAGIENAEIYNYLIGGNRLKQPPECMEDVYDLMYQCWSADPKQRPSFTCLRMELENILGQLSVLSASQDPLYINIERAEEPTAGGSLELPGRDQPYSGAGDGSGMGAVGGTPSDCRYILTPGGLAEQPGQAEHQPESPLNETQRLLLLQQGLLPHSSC

Fms(h) (human) = molecular target: T3, Fms(h) (human) (UniProt P07333)
T3 sequence (looked up): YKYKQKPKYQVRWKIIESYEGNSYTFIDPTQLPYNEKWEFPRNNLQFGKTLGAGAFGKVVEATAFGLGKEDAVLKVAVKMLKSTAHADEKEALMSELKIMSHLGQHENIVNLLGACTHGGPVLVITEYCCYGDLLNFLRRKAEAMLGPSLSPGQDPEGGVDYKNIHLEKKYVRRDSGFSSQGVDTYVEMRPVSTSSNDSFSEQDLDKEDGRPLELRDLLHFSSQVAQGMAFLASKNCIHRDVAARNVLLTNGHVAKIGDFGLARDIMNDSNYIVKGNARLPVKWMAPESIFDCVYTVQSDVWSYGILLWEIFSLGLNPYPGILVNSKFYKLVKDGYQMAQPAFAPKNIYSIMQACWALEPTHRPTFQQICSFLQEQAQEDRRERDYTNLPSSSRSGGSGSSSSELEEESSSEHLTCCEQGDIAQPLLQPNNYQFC

MSK2(h) (human) = MSK2(h) (human) (UniProt O75676)
DRAK1(h) (human) = molecular target: T4, DRAK1(h) (human) (UniProt Q9UEE5)
T4 sequence (looked up): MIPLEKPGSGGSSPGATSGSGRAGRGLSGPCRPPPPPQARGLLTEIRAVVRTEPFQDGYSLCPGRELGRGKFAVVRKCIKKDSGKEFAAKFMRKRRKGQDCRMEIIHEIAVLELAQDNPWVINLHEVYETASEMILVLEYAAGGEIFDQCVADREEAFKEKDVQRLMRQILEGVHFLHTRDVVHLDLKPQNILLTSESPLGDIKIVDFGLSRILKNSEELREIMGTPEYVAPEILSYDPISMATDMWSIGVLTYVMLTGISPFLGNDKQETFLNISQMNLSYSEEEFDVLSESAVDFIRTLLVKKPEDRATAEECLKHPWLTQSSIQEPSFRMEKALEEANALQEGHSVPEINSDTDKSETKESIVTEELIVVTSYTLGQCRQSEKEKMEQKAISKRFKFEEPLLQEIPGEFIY

RIPK2(h) (human) = RIPK2(h) (human) (UniProt O43353)
Txk(h) (human) = molecular target: T5, Txk(h) (human) (UniProt P42681)
T5 sequence (looked up): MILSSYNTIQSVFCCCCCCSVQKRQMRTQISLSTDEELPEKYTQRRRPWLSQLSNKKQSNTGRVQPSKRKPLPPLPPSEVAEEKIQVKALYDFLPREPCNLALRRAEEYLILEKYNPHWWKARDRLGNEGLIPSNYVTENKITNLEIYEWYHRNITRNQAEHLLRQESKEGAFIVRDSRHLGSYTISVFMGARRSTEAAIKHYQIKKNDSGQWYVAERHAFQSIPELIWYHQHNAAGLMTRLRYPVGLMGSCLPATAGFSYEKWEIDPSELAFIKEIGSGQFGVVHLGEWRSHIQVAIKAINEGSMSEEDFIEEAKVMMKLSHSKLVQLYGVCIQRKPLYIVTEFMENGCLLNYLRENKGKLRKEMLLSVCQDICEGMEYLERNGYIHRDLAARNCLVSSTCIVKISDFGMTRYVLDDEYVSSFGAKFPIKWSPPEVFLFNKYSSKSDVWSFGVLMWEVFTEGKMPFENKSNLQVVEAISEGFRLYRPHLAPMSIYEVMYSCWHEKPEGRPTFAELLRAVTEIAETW

MAPK2(h) (human) = MAPK2(h) (human) (UniProt P28482)
Chain of MAPK2(h) (human) (P28482 whole entry): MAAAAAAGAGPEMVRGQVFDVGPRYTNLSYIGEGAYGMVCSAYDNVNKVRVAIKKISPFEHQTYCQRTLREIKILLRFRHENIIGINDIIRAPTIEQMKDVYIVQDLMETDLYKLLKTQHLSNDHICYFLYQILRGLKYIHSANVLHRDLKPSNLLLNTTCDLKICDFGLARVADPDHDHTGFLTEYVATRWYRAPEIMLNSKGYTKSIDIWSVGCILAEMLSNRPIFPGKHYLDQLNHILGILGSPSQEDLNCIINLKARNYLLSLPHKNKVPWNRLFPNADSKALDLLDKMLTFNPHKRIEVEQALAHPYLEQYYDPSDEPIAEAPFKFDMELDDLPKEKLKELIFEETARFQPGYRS

Chain of RIPK2(h) (human) (O43353 1-299 limits assumed): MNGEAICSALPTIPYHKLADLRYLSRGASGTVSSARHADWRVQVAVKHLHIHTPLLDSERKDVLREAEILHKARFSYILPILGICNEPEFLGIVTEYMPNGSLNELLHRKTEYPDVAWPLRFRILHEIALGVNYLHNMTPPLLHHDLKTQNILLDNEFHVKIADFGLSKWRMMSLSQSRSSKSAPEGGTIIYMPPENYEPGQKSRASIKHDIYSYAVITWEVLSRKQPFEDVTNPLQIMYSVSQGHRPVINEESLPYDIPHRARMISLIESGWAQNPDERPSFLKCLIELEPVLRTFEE

Row | % activity at 100 µM (PKG1α(h) (human)) [%] | % activity at 100 µM (MST2(h) (human)) [%] | % activity at 100 µM (ASK1(h) (human)) [%] | % activity at 100 µM (Rse(h) (human)) [%] | % activity at 100 µM (Fms(h) (human)) [%] | % activity at 100 µM (MSK2(h) (human)) [%] | % activity at 100 µM (DRAK1(h) (human)) [%] | % activity at 100 µM (RIPK2(h) (human)) [%] | % activity at 100 µM (Txk(h) (human)) [%] | % activity at 100 µM (MAPK2(h) (human)) [%] | Substance
1 | 64 | 19 | 80 | 88 | 45 | 56 | 14 | 97 | 48 | 98 | MMI-0300 (peptide)
2 | 58 | 11 | 69 | 89 | 37 | 52 | 14 | 98 | 37 | 93 | MMI-0400 (peptide)
3 | 25 | 2 | -4 | 63 | 14 | 14 | 8 | 30 | 10 | 60 | MMI-0500 (peptide)
